Measured values as given in the supplement of paper PMC10126150.
± gives the standard deviation of the averaged measurements.

Tested on: ATP
Assay: switch fluorescence ratio, 500 uM ATP over buffer (Cy3 cluster intensity, sum of 5 cycles each) (fold (ratio)); higher = stronger signal-on switching upon ATP binding; sequences stand for … in TCGTCGGCAGCGTCAGATGTGTATAAGAGACAGTTTTTTTTTTTTTTTTTTTTTTTTT…TC
Details: aptamer strand: ATP DNA aptamer (quencher-CACCTGGGGGAGTATTGCGGAGGAAGG + anchor), 100 nM annealed; ATP concentration: 500 uM
Summary of the method: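 The fluorescence ratio divides summed target-cycle Cy3 intensity by summed buffer-cycle Cy3 intensity for each cluster and is averaged per switch-domain sequence. Cy3-labelled switching-strand clusters on a modified Illumina MiSeq flow-cell were annealed to 100 nM quencher-labelled ATP aptamer, then imaged in selection buffer and again after 15 min with 500 uM ATP at 22 °C. Five such cycles were run, with NaOH stripping and re-annealing between them, and clusters outside 100-1000 RFU were excluded.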
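Also: ATP exposure 15 min at 22 °C before imaging.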

Sequence | switch fluorescence ratio
TGGGACAGGG | 1.03 ± 0.088
TGGGACATGC | 0.987 ± 0.0088
TGGGACATTT | 1.04 ± 0.057
TGGGACCCGT | 1.04 ± 0.038
TGGGACCGGC | 0.98 ± 0.021
TGGGACGATC | 1.05 ± 0.028
TGGGACGTTT | 0.934 ± 0.046
TGGGACTATT | 1.01 ± 0.076
TGGGACTCGA | 0.991 ± 0.035
TGGGACTTAG | 1.017 ± 0.0022
TGGGACTTTT | 1.01 ± 0.053
TGGGAGAAAC | 1.09 ± 0.091
TGGGAGAGT | 1.011 ± 0.0034
TGGGAGAGTG | 0.994 ± 0.0055
TGGGAGGAAT | 0.988 ± 0.037
TGGGAGGAGT | 1 ± 0.048
TGGGAGGATT | 1 ± 0.027
TGGGAGGCAT | 1.01 ± 0.027
TGGGAGGGTC | 1.12 ± 0.14
TGGGAGGGTT | 1.12 ± 0.25
TGGGAGTATA | 1 ± 0.032
TGGGAGTTGT | 0.989 ± 0.011
TGGGATAGGT | 1.01 ± 0.06
TGGGATAGTG | 1 ± 0.046
TGGGATATAT | 0.954 ± 0.034

Sequence | switch fluorescence ratio
TGGGATATCT | 1 ± 0.023
TGGGATCCAT | 0.972 ± 0.015
TGGGATGAAG | 0.982 ± 0.01
TGGGATGCTT | 0.981 ± 0.011
TGGGATGGGC | 1.05 ± 0.14
TGGGATGGGT | 1.02 ± 0.092
TGGGATGTG | 0.9906 ± 0.0049
TGGGATTAGG | 0.969 ± 0.03
TGGGATTCCT | 1.03 ± 0.073
TGGGATTGTA | 0.987 ± 0.024
TGGGCAATGG | 1.833 ± 0.018
TGGGCAGGGC | 1.04 ± 0.058
TGGGCCATGT | 0.9791 ± 0.0065
TGGGCCTTGT | 1.023 ± 0.0033
TGGGCGGTA | 0.963 ± 0.026
TGGGCGTAG | 0.993 ± 0.011
TGGGCGTTGC | 1.01 ± 0.018
TGGGCTAATT | 1.02 ± 0.04
TGGGCTACTG | 1.04 ± 0.04
TGGGCTGGGG | 1.04 ± 0.023
TGGGCTTCAT | 0.998 ± 0.028
TGGGCTTTAG | 0.967 ± 0.041
TGGGGAAAAT | 1.033 ± 0.0065
TGGGGAAAGC | 0.983 ± 0.014
TGGGGAAGTG | 0.987 ± 0.025

Sequence | switch fluorescence ratio
TGGGGAATCG | 1.01 ± 0.046
TGGGGACAAT | 0.987 ± 0.018
TGGGGACCCA | 0.991 ± 0.018
TGGGGACCGT | 1 ± 0.03
TGGGGACGAC | 1.02 ± 0.063
TGGGGACTAT | 1.02 ± 0.012
TGGGGAGTAA | 1.015 ± 0.0092
TGGGGAGTGT | 0.9849 ± 0.0076
TGGGGATAAT | 1.01 ± 0.028
TGGGGATAGT | 0.968 ± 0.018
TGGGGATATA | 1.029 ± 0.0093
TGGGGATATT | 0.9965 ± 0.0016
TGGGGATGTA | 0.976 ± 0.014
TGGGGCAAAT | 1.01 ± 0.034
TGGGGCAATT | 1.1 ± 0.06
TGGGGCACCC | 0.985 ± 0.01
TGGGGCATCG | 1 ± 0.029
TGGGGCCGCG | 1.048 ± 0.0092
TGGGGCGCCG | 1.13 ± 0.18
TGGGGCGCTT | 1 ± 0.033
TGGGGCTATA | 0.995 ± 0.037
TGGGGCTTTA | 1.06 ± 0.031
TGGGGGAAAT | 1.25 ± 0.74
TGGGGGAAGC | 0.984 ± 0.026
TGGGGGACTG | 1.05 ± 0.054

Sequence | switch fluorescence ratio
TGGGGGAGCA | 0.9811 ± 0.0094
TGGGGGATCA | 0.978 ± 0.029
TGGGGGATCT | 1 ± 0.038
TGGGGGCGGA | 1.01 ± 0.032
TGGGGGCGTA | 0.9641 ± 0.0025
TGGGGGCTTT | 0.99 ± 0.023
TGGGGGGATT | 1.01 ± 0.045
TGGGGGGCCT | 0.991 ± 0.02
TGGGGGGCTA | 1.02 ± 0.056
TGGGGGGGAA | 0.999 ± 0.021
TGGGGGGGCA | 1 ± 0.012
TGGGGGGGGG | 1.02 ± 0.079
TGGGGGGTAT | 1 ± 0.03
TGGGGGTAAG | 0.989 ± 0.03
TGGGGGTATG | 1 ± 0.02
TGGGGGTGCC | 0.9758 ± 0.0037
TGGGGGTGTG | 1.04 ± 0.082
TGGGGGTTAT | 0.993 ± 0.042
TGGGGGTTCT | 1.02 ± 0.057
TGGGGTAAAA | 0.99 ± 0.0091
TGGGGTAAAT | 1.01 ± 0.017
TGGGGTAGAG | 0.97 ± 0.041
TGGGGTAGC | 0.9979 ± 0.0088
TGGGGTAGCC | 0.932 ± 0.029
TGGGGTAGCG | 0.998 ± 0.043
